Consider 94 variants from the supplement of paper PMC10567573.

B1: FAM189A2 (parent)
chain: GSEAAVIPLDLGCTQVTQDGDIPN
B2: TOR1AIP2 (parent)
chain: SPGHSSAGQEGEDTLRRRLLAPEA
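Also: lentivirally expressed fusions sorted by FACS into six bins by GFP to DsRed ratio, PSI derived from sequencing read proportions per bin multiplied by bin number.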

In the first series the parent is B1. The series is described as follows: protein stability index of a GFP-peptide fusion (GPS, HEK-293T) (PSI 1-6); higher = more stable. To be noted: c terminus: a fixed tail appended.
GSEAAVIPLDLGCTQVTQDGDFPN [I22F]: the protein stability index was found to be 5.15.

Regarding GSEAAVIPLDLGCTQVTRDGDIPN [Q18R], the protein stability index was 5.09.

In the case of GSEAAVIPLDLGCTQVTEDGDIPN [Q18E], the protein stability index came out at 5.38.

With GSEAAVIPLDLGCTQVTKDGDIPN [Q18K], the protein stability index worked out at 5.17.

With GSEAAVIPLDLGCTQVTWDGDIPN [Q18W], the protein stability index is 4.67.

With GSEAAVIPLDLGCTQVTYDGDIPN [Q18Y], the protein stability index came to 4.61.

As to GSEAAVIPLDLGCTQVTTDGDIPN [Q18T], the protein stability index amounted to 5.02.

Regarding GSEAAVIPLDLGCTQVTVDGDIPN [Q18V], the protein stability index was 4.92.

For the variant GSEAAVIPLDLGCTQVTHDGDIPN [Q18H], the protein stability index worked out at 5.22.

In the case of GSEAAVIPLDLGCTQVTGDGDIPN [Q18G], the protein stability index came to 5.49.

Consider GSEAAVIPLDLGCTQVTDDGDIPN [Q18D], for which the protein stability index came out at 5.63.

Turning to GSEAAVIPLDLGCTQVTNDGDIPN [Q18N], the protein stability index is 4.68.

In the case of GSEAAVIPLDLGCTQVTFDGDIPN [Q18F], the protein stability index is 4.26.

Take GSEAAVIPLDLGCTQVTMDGDIPN [Q18M]: the protein stability index amounted to 4.83.

In the case of GSEAAVIPLDLGCTQVTSDGDIPN [Q18S], the protein stability index was 5.54.

Turning to GSEAAVIPLDLGCTQVTCDGDIPN [Q18C], the protein stability index was found to be 5.27.

As to GSEAAVIPLDLGCTQVTIDGDIPN [Q18I], the protein stability index was determined as 4.62.

GSEAAVIPLDLGCTQVTPDGDIPN [Q18P]: the protein stability index was determined as 5.18.

Take GSEAAVIPLDLGCTQVTLDGDIPN [Q18L]: the protein stability index stood at 5.25.

For GSEAAVIPLDLGCTQVTQDGDIPW [N24W], the protein stability index stood at 4.39.

For GSEAAVIPLDLGCTQVTQDGDIPH [N24H], the protein stability index stood at 5.28.

For GSEAAVIPLDLGCTQVTQDGDIPM [N24M], the protein stability index is 4.95.

Consider GSEAAVIPLDLGCTQVTQDGDIPI [N24I], for which the protein stability index came out at 4.51.

GSEAAVIPLDLGCTQVTQDGDIPY [N24Y]: the protein stability index stood at 4.91.

As for GSEAAVIPLDLGCTQVTQDGDIPE [N24E], the protein stability index is 5.28.

For GSEAAVIPLDLGCTQVTQDGDIPD [N24D], the protein stability index stood at 5.42.

In the case of GSEAAVIPLDLGCTQVTQDGDIPC [N24C], the protein stability index is 5.25.

As for GSEAAVIPLDLGCTQVTQDGDIPP [N24P], the protein stability index came out at 5.14.

For GSEAAVIPLDLGCTQVTQDGDIPR [N24R], the protein stability index is 4.91.

On to GSEAAVIPLDLGCTQVTQDGDIPG [N24G], for which the protein stability index amounted to 5.53.

With GSEAAVIPLDLGCTQVTQDGDIPA [N24A], the protein stability index came out at 5.27.

As to GSEAAVIPLDLGCTQVTQDGDIPK [N24K], the protein stability index is 5.03.

As to GSEAAVIPLDLGCTQVTQDGDIPF [N24F], the protein stability index was 4.53.

In the case of GSEAAVIPLDLGCTQVTQDGDIPQ [N24Q], the protein stability index turned out to be 5.3.

Regarding GSEAAVIPLDLGCTQVTQDGDIPS [N24S], the protein stability index was determined as 5.51.

As for GSEAAVIPLDLGCTQVTQDGDIPT [N24T], the protein stability index was found to be 5.54.

As for GSEAAVIPLDLGCTQVTQDGDIPV [N24V], the protein stability index is 5.17.

For the variant GSEAAVIPLDLGCTQVTQDGDIPL [N24L], the protein stability index came out at 4.79.

Variants of B2 are the subject of the next series. The series is described as above. To be noted: c terminus: a fixed tail appended.
Consider WPGHSSAGQEGEDTLRRRLLAPEA [S1W], for which the protein stability index was found to be 4.53.

Consider PPGHSSAGQEGEDTLRRRLLAPEA [S1P], for which the protein stability index is 5.3.

Regarding CPGHSSAGQEGEDTLRRRLLAPEA [S1C], the protein stability index came to 3.46.

Regarding RPGHSSAGQEGEDTLRRRLLAPEA [S1R], the protein stability index came to 4.05.

Take MPGHSSAGQEGEDTLRRRLLAPEA [S1M]: the protein stability index turned out to be 4.49.

With VPGHSSAGQEGEDTLRRRLLAPEA [S1V], the protein stability index came to 4.59.

Regarding APGHSSAGQEGEDTLRRRLLAPEA [S1A], the protein stability index worked out at 5.07.

Turning to HPGHSSAGQEGEDTLRRRLLAPEA [S1H], the protein stability index turned out to be 4.57.

In the case of NPGHSSAGQEGEDTLRRRLLAPEA [S1N], the protein stability index amounted to 3.13.

With YPGHSSAGQEGEDTLRRRLLAPEA [S1Y], the protein stability index was 2.21.

As for QPGHSSAGQEGEDTLRRRLLAPEA [S1Q], the protein stability index stood at 4.02.

Take EPGHSSAGQEGEDTLRRRLLAPEA [S1E]: the protein stability index is 5.47.

As to KPGHSSAGQEGEDTLRRRLLAPEA [S1K], the protein stability index stood at 4.47.

LPGHSSAGQEGEDTLRRRLLAPEA [S1L]: the protein stability index came out at 4.91.

FPGHSSAGQEGEDTLRRRLLAPEA [S1F]: the protein stability index turned out to be 2.59.

DPGHSSAGQEGEDTLRRRLLAPEA [S1D]: the protein stability index is 5.21.

In the case of TPGHSSAGQEGEDTLRRRLLAPEA [S1T], the protein stability index stood at 4.88.

Regarding IPGHSSAGQEGEDTLRRRLLAPEA [S1I], the protein stability index came out at 4.92.

GPGHSSAGQEGEDTLRRRLLAPEA [S1G]: the protein stability index stood at 3.81.

For the variant SPNHSSAGQEGEDTLRRRLLAPEA [G3N], the protein stability index is 4.16.

On to SPVHSSAGQEGEDTLRRRLLAPEA [G3V], for which the protein stability index was determined as 3.24.

As to SPLHSSAGQEGEDTLRRRLLAPEA [G3L], the protein stability index is 3.78.

For SPRHSSAGQEGEDTLRRRLLAPEA [G3R], the protein stability index stood at 2.93.

Regarding SPTHSSAGQEGEDTLRRRLLAPEA [G3T], the protein stability index worked out at 3.59.

For the variant SPPHSSAGQEGEDTLRRRLLAPEA [G3P], the protein stability index was 4.69.

In the case of SPSHSSAGQEGEDTLRRRLLAPEA [G3S], the protein stability index is 4.02.

With SPFHSSAGQEGEDTLRRRLLAPEA [G3F], the protein stability index was determined as 3.85.

Consider SPMHSSAGQEGEDTLRRRLLAPEA [G3M], for which the protein stability index came to 4.48.

For SPHHSSAGQEGEDTLRRRLLAPEA [G3H], the protein stability index came out at 4.21.

SPIHSSAGQEGEDTLRRRLLAPEA [G3I]: the protein stability index came out at 3.51.

Consider SPDHSSAGQEGEDTLRRRLLAPEA [G3D], for which the protein stability index worked out at 4.73.

For SPCHSSAGQEGEDTLRRRLLAPEA [G3C], the protein stability index came to 3.32.

For SPEHSSAGQEGEDTLRRRLLAPEA [G3E], the protein stability index came to 4.65.

In the case of SPAHSSAGQEGEDTLRRRLLAPEA [G3A], the protein stability index turned out to be 3.74.

Consider SPKHSSAGQEGEDTLRRRLLAPEA [G3K], for which the protein stability index was determined as 3.67.

Turning to SPWHSSAGQEGEDTLRRRLLAPEA [G3W], the protein stability index is 4.3.

With SPQHSSAGQEGEDTLRRRLLAPEA [G3Q], the protein stability index amounted to 4.46.

For the variant SEGHSSAGQEGEDTLRRRLLAPEA [P2E], the protein stability index was determined as 4.43.

Consider SHGHSSAGQEGEDTLRRRLLAPEA [P2H], for which the protein stability index amounted to 4.2.

Consider SRGHSSAGQEGEDTLRRRLLAPEA [P2R], for which the protein stability index is 4.47.

SNGHSSAGQEGEDTLRRRLLAPEA [P2N]: the protein stability index came to 4.42.

Turning to SSGHSSAGQEGEDTLRRRLLAPEA [P2S], the protein stability index is 3.93.

For SDGHSSAGQEGEDTLRRRLLAPEA [P2D], the protein stability index worked out at 4.86.

As for SAGHSSAGQEGEDTLRRRLLAPEA [P2A], the protein stability index is 2.22.

As to SYGHSSAGQEGEDTLRRRLLAPEA [P2Y], the protein stability index came out at 2.24.

On to SFGHSSAGQEGEDTLRRRLLAPEA [P2F], for which the protein stability index stood at 2.53.

Turning to SCGHSSAGQEGEDTLRRRLLAPEA [P2C], the protein stability index was found to be 2.03.

For the variant SKGHSSAGQEGEDTLRRRLLAPEA [P2K], the protein stability index was found to be 4.44.

SQGHSSAGQEGEDTLRRRLLAPEA [P2Q]: the protein stability index was found to be 4.47.

As for SVGHSSAGQEGEDTLRRRLLAPEA [P2V], the protein stability index was 2.75.

SGGHSSAGQEGEDTLRRRLLAPEA [P2G]: the protein stability index is 4.22.

Turning to SLGHSSAGQEGEDTLRRRLLAPEA [P2L], the protein stability index worked out at 2.43.

For the variant SMGHSSAGQEGEDTLRRRLLAPEA [P2M], the protein stability index turned out to be 3.75.

On to STGHSSAGQEGEDTLRRRLLAPEA [P2T], for which the protein stability index was 3.23.

For SWGHSSAGQEGEDTLRRRLLAPEA [P2W], the protein stability index came to 2.65.

Take SIGHSSAGQEGEDTLRRRLLAPEA [P2I]: the protein stability index came out at 2.5.
